{"source": "paper doi:10.1101/2024.06.05.597502v1", "proteins": {"B1": {"name": "AoBgl (Aspergillus oryzae exo-β-(1,3) glucanase) (Aspergillus oryzae RIB40) (protein)", "chain": "SRLDPRASSFDYNGEKVRGVNLGGWLVLEPWITPSIFDAAGAEAVDEWSLTKILGKEEAEARLSAHWKSFVSAGDFQRMADAGLNHVRIPIGYWALGPLEGDPYVDGQLEYLDKAVEWAGAAGLKVLIDLHGAPGSQNGFDNSGRRGAIQWQQGDTVEQTLDAFDLLAERYLGSDTVAAIEAINEPNIPGGVDQGKLQEYYGSVYGIVNKYNAGTSVVYGDGFLPVESWNGFKTEGSKVVMDTHHYHMFDNGLIAMDIDSHIDAVCQFAHQHLEASDKPVIVGEWTGAVTDCAKYLNGKGNGARYDGSYAADKAIGDCSSLATGFVSKLSDEERSDMRRFIEAQLDAFELKSGWVFWTWKTEGAPGWDMSDLLEAGVFPTSPDDREFPKQC"}}, "substrate": "O=[N+]([O-])c1ccc(O[C@@H]2O[C@H](CO)[C@@H](O)[C@H](O)[C@H]2O)cc1", "assay": "purified protein", "conditions": "50 mM sodium acetate pH 5.5, 55 °C", "data": [{"protein": "B1", "values": [{"measurement": "Km", "value": 5.78, "unit": "mM"}]}]}
